Measurements: US20120100134A1, “GENETIC VARIANTS IN ANGIOGENESIS PATHWAY ASSOCIATED WITH CLINICAL OUTCOME” (University of Southern California, priority 2009, published 2012)

Test system: advanced NSCLC patients
Experiment: Toxicity: grade3-4 hypertension versus genotype, E4599 subset
Assay type: in vivo, human
Settings: bevacizumab arm
Text: The problem, however, is that there is hardly any power to do this. There were a total of 30 cases on E4599 who reported grade3-4 hypertension of any attribution type on this study. Once these cases are merged with the correlatives dataset, there is an overlap of only 7 hypertension cases in the correlative study. The distribution of hypertension versus genotype for these VEGF polymorphisms, as well as the WNK1 polymorphisms is as follows: […]

For Bevacizumab, the “HTN (number of patients, grade3-4 hypertension)” value (VEGF634 CC) was 1, the “No HTN (number of patients)” value (VEGF634 CC) was 10 and the “HTN (number of patients, grade3-4 hypertension)” value (VEGF634 GC) was 0. For the same substance, the “HTN (number of patients, grade3-4 hypertension)” value (VEGF634 GG) was 6, the “No HTN (number of patients)” value (VEGF1498 CC) was 18 and the “HTN (number of patients, grade3-4 hypertension)” value (VEGF1498 CT) was 1. The “No HTN (number of patients)” value (VEGF1498 CT) was 21, the “No HTN (number of patients)” value (VEGF1498 TT) was 17 and the “HTN (number of patients, grade3-4 hypertension)” value (WNK1-2158501 GG (so in the source)) was 1. For the same substance, the “No HTN (number of patients)” value (WNK1-2158501 TT (so in the source)) was 18, the “HTN (number of patients, grade3-4 hypertension)” value (WNK1-110644560 GG) was 0 and the “No HTN (number of patients)” value (WNK1-110644560 GG) was 7. For the same substance, the “HTN (number of patients, grade3-4 hypertension)” value (WNK1-110644560 GT) was 1, the “HTN (number of patients, grade3-4 hypertension)” value (WNK1-110644560 TT) was 6 and the “No HTN (number of patients)” value (WNK1-110644560 TT) was 18.
